Data taken from patent publication US11497796B2, “Agents directed against a cis RGMa/neogenin interaction or lipid rafts and use of the same in methods of treatment” (UNIVERSITY HEALTH NETWORK, priority 2013, dated 2022).

Legend:
retinal whole mounts = test: Oxygen Glucose Deprivation (OGD) in retinal whole mounts, PI staining; type: cell-based; settings: added to the medium, OGD 1 hour, 24 hours
Description: Specifically, retinal whole mounts were subjected to OGD for 1 hour. After ischemia, whole mounts were incubated for 24 hours and dead cells were identified using propidium iodide (PI) staining.
To determine whether Neogenin required lipid raft association to induce cell death, OGD was performed on retinal whole mounts in the presence of 4Ig, which as described above, prevented Neogenin localization into lipid rafts.

retinal cells = test: Ocular ischemia by ligation of the main optic artery, cell survival; type: in vivo, rat; settings: injection into the eye after ligation
Description: (A,B,C) Schematic representation of the experiments performed on the eye. A) the main artery was ligated to stop blood flow for 15 min. B) RGMa was injected into the eye vitreous just after ligation. C) 2 weeks after ligation, retrograde labeling was performed to assess cell survival. D) Representation of the retinal areas used for quantification. E) Quantification of cell survival performed on 8 rats for each condition.
To extend this study, whether RGMa injection into the eye affected cell survival after ligation of the main optic artery to induce ocular ischemia was tested.

B1: RGMa: Repulsive Guidance Molecule A added to the medium or injected into the eye (protein)
chain: PHLRTFTDTFQTCKVQGAWPLIDNNYLNVQVTNTPVLPGSSATATSKLTIIFKSFQECVEQKVYQAEMDELPAAFADGSKNGGDKHGANSLKITEKVSGQHIEIQAKYIGTTIVVRQVGRYLTFAVRMPEEVVNAVEDRDSQGLYLCLRGCPLNQQIDFQTFRLAQAAEGRARRKGPSLPAPPEAFTYESATAKCREKLPVEDLYFQSCVFDLLTTGDVNFMLAAYYAFEDVKMLHSNKDKLHLYERTRALAPGN
cell survival after OGD (retinal whole mounts): promoted cell survival
enhancement of survival compared to controls (retinal cells): up to 2 times
